Laboratory results reported in US10294487B2, “Methods and compositions involving ALS variants with native substrate preference” (E I DU PONT DE NEMOURS AND COMPANY, priority 2012, dated 2019).

Tests used:
G. max ALS1 protein [1] = test: Colorimetric ALS kinetic assay (Km, kcat) with pyruvate as substrate; type: biochemical, Glycine max
Experimental: A survey of known ALS (AcetoLactate Synthase) gene variants (Table 2) was performed, and a number of ALS variants were selected for kinetic evaluation based on breadth and strength of insensitivity to ALS-inhibitor herbicides as well as kinetic activity parameters including the ratio of substrate preferences. The selected ALS gene variants (Table 3) were generated by PCR mediated site-directed mutagenesis. Finnzymes PHUSION® DNA polymerase (Cat. No. F-530S) was used for the PCR reactions, following the instructions for recommended temperatures and cycles in the PHUSION® protocol. Some mutagenesis reactions were assisted by the use of IN-FUSION® enzyme (Clontech Cat. No. 639620) to circularize a linear plasmid with the mutation located within the 15 nucleotide overlapping ends, via recombination following the manufacturer's protocol for primer design and reaction conditions. The ALS genes, beginning with encoded amino acids SISK, (S48 to K51 in the G. max ALS1 protein (SEQ ID NO:1) corresponding to the mature protein N-terminus of the chloroplast localized enzyme), were cloned into the PMAL® E. coli expression vector (New England Biolabs) to express ALS as a fusion protein with a Maltose-Binding Protein (MBP) at the N-terminus with a thrombin site for cleavage and a His-6 tag for affinity purification. All in vitro protein characterization described in the examples was carried out with the isolated proteins after cleavage from the His-MBP fusion partner.
Km and Kcat determinations for recombinant ALS variants (with respect to pyruvate as the substrate) were performed using a colorimetric assay. ALS assays were carried out in 96-well microplates with 150 ul reaction containing 25 mM potassium phosphate, 0.2 mg/ml BSA, 15 mM MgCl2, 0.7 mM TPP, 28 uM FAD and 0-100 mM sodium pyruvate. Reactions were initiated by the addition of ALS enzyme to a final amount of 0.8 ug/well. Parameters for Km and Vmax were determined by fitting the velocity versus substrate concentration data to a rectangular hyperbola using GraphPad Prism software. Kcat values were determined from Vmax based on protein concentration in the reactions.

G. max ALS1 protein [2] = test: Substrate specificity ratio (Rf), pyruvate versus 2-ketobutyrate, LC-MS of reduced products; type: biochemical, Glycine max; conditions: ratio of [pyruvate] to [2-ketobutyrate] giving equal rates of acetolactate and acetohydroxybutyrate formation, 25 mM pyruvate
Text: The “substrate specificity ratio”, or “Rf”, characterizes the specificity of the ALS enzyme for AHB formation relative to AL formation (Gollop et al. (1989) Biochemistry 28:6310-6317). Rf is the ratio of [pyruvate] to [2-ketobutyrate] that results in equal rates of formation of acetolactate and acetohydroxybutyrate. Rf is a constant at all substrate concentrations. The substrate specificity ratio is ˜114 for the wild type Glycine max ALS1 enzyme (SEQ ID NO:1) compared to ˜3 for the highly resistant allele (HRA) double mutant variant (SEQ ID NO: 10) of the Glycine max ALS1. The soybean HRA sequence is disclosed, for example, in WO2007/024782, herein incorporated by reference.
Substrate preference was determined using the assay described in Example 3; however, the assay was conducted using a constant concentration of pyruvate (25 mM) and varying concentrations of the second substrate, 2-ketobutyrate. Each reaction involving a specific ratio of pyruvate to 2-ketobutyrate, after a set period of time, was quenched by addition of sodium borohydride (7-fold excess) to form the reduced adducts of the products of the two substrates namely; reduced acetolactate for the reaction with pyruvate and reduced aceto hydroxybutyrate for the 2-ketobutyrate reaction. The relative amounts of the two reduced products was determined by first, chromatographic separation using a 4.6×250 mm dC18 column (Atlantis) equilibrated with a 0.1% formic acid solution and subsequent elution using a methanol gradient at 0.7 ml/min, followed by detection using a Thermo FINNIGAN® LTQ® Mass Spectrometer (MS). The products of the two reactions were quantified by integration of the MS signals. The % of the amount of each of the reduced products was then plotted versus the concentration of 2-ketobutyrate. As the 2-ketobutyrate amount increased there was a consequent increase in reduced acetohydroxybutyrate (AHB) and decrease in reduced acetolactate (AL). […] The substrate specificity ratio was ˜114 for the wild type enzyme compared to 3 for the highly resistant allele (HRA) double mutant ALS variant (SEQ ID NO: 10).

B1: GM-ALS_P178A_W555L: highly resistant allele (HRA) double mutant of Glycine max ALS1: P→A at 178 and W→L at 555 (protein)
chain: MAATASRTTRFSSSSSHPTFPKRITRSTLPLSHQTLTKPNHALKIKCSISKPPTAAPFTKEAPTTEPFVSRFASGEPRKGADILVEALERQGVTTVFAYPGGASMEIHQALTRSAAIRNVLPRHEQGGVFAAEGYARSSGLPGVCIATSGPGATNLVSGLADALMDSVPVVAITGQVARRMIGTDAFQETPIVEVSRSITKHNYLILDVDDIPRVVAEAFFVATSGRPGPVLIDIPKDVQQQLAVPNWDEPVNLPGYLARLPRPPAEAQLEHIVRLIMEAQKPVLYVGGGSLNSSAELRRFVELTGIPVASTLMGLGTFPIGDEYSLQMLGMHGTVYANYAVDNSDLLLAFGVRFDDRVTGKLEAFASRAKIVHIDIDSAEIGKNKQAHVSVCADLKLALKGINMILEEKGVEGKFDLGGWREEINVQKHKFPLGYKTFQDAISPQHAIEVLDELTNGDAIVSTGVGQHQMWAAQFYKYKRPRQWLTSGGLGAMGFGLPAAIGAAVANPGAVVVDIDGDGSFIMNVQELATIRVENLPVKILLLNNQHLGMVVQLEDRFYKSNRAHTYLGDPSSESEIFPNMLKFADACGIPAARVTKKEELRAAIQRMLDTPGPYLLDVIVPHQEHVLPMIPSNGSFKDVITEGDGRTRY
modifications: ALS1 variant P178A W555L
With B1 as the molecule, how does the Km (G. max ALS1 protein [1]) read?
Its Km is 15 mM.

And the kcat (G. max ALS1 protein [1])?
Its kcat is 1.5 s⁻¹.

And the “Substrate specificity ratio (Rf)” value (G. max ALS1 protein [2])?
The value was 2.9.

And the “Substrate specificity ratio (Rf)” value (G. max ALS1 protein [2]; listed as HRA)?
The value was 3.

B2: GM-ALS_P178S_D357E: Glycine Max ALS1 with P→S at position 178 and D→E at position 357 (protein)
chain: MAATASRTTRFSSSSSHPTFPKRITRSTLPLSHQTLTKPNHALKIKCSISKPPTAAPFTKEAPTTEPFVSRFASGEPRKGADILVEALERQGVTTVFAYPGGASMEIHQALTRSAAIRNVLPRHEQGGVFAAEGYARSSGLPGVCIATSGPGATNLVSGLADALMDSVPVVAITGQVSRRMIGTDAFQETPIVEVSRSITKHNYLILDVDDIPRVVAEAFFVATSGRPGPVLIDIPKDVQQQLAVPNWDEPVNLPGYLARLPRPPAEAQLEHIVRLIMEAQKPVLYVGGGSLNSSAELRRFVELTGIPVASTLMGLGTFPIGDEYSLQMLGMHGTVYANYAVDNSDLLLAFGVRFDERVTGKLEAFASRAKIVHIDIDSAEIGKNKQAHVSVCADLKLALKGINMILEEKGVEGKFDLGGWREEINVQKHKFPLGYKTFQDAISPQHAIEVLDELTNGDAIVSTGVGQHQMWAAQFYKYKRPRQWLTSGGLGAMGFGLPAAIGAAVANPGAVVVDIDGDGSFIMNVQELATIRVENLPVKILLLNNQHLGMVVQWEDRFYKSNRAHTYLGDPSSESEIFPNMLKFADACGIPAARVTKKEELRAAIQRMLDTPGPYLLDVIVPHQEHVLPMIPSNGSFKDVITEGDGRTRY
modifications: ALS1 variant P178S D357E
With B2 as the molecule, how does the Km (G. max ALS1 protein [1]) read?
The Km was 6 mM.

What about the kcat (G. max ALS1 protein [1]) of the same molecule?
Its kcat is 3.17 s⁻¹.

And the “Substrate specificity ratio (Rf)” value (G. max ALS1 protein [2])?
The value was 100.0.

B3: GM-ALS_A103T_P178S: Glycine Max ALS1 with A→T at position 103 and P→S at position 178 (protein)
chain: MAATASRTTRFSSSSSHPTFPKRITRSTLPLSHQTLTKPNHALKIKCSISKPPTAAPFTKEAPTTEPFVSRFASGEPRKGADILVEALERQGVTTVFAYPGGTSMEIHQALTRSAAIRNVLPRHEQGGVFAAEGYARSSGLPGVCIATSGPGATNLVSGLADALMDSVPVVAITGQVSRRMIGTDAFQETPIVEVSRSITKHNYLILDVDDIPRVVAEAFFVATSGRPGPVLIDIPKDVQQQLAVPNWDEPVNLPGYLARLPRPPAEAQLEHIVRLIMEAQKPVLYVGGGSLNSSAELRRFVELTGIPVASTLMGLGTFPIGDEYSLQMLGMHGTVYANYAVDNSDLLLAFGVRFDDRVTGKLEAFASRAKIVHIDIDSAEIGKNKQAHVSVCADLKLALKGINMILEEKGVEGKFDLGGWREEINVQKHKFPLGYKTFQDAISPQHAIEVLDELTNGDAIVSTGVGQHQMWAAQFYKYKRPRQWLTSGGLGAMGFGLPAAIGAAVANPGAVVVDIDGDGSFIMNVQELATIRVENLPVKILLLNNQHLGMVVQWEDRFYKSNRAHTYLGDPSSESEIFPNMLKFADACGIPAARVTKKEELRAAIQRMLDTPGPYLLDVIVPHQEHVLPMIPSNGSFKDVITEGDGRTRY
modifications: ALS1 variant A103T P178S
Which results are given for B3?
Km (G. max ALS1 protein [1]): 10 mM; kcat (G. max ALS1 protein [1]): 2.08 s⁻¹; Substrate specificity ratio (Rf) (G. max ALS1 protein [2]): 75.0

B4: GM-ALS_P178S: Glycine Max ALS1 variant with a P→S mutation at position 178 (protein)
chain: MAATASRTTRFSSSSSHPTFPKRITRSTLPLSHQTLTKPNHALKIKCSISKPPTAAPFTKEAPTTEPFVSRFASGEPRKGADILVEALERQGVTTVFAYPGGASMEIHQALTRSAAIRNVLPRHEQGGVFAAEGYARSSGLPGVCIATSGPGATNLVSGLADALMDSVPVVAITGQVSRRMIGTDAFQETPIVEVSRSITKHNYLILDVDDIPRVVAEAFFVATSGRPGPVLIDIPKDVQQQLAVPNWDEPVNLPGYLARLPRPPAEAQLEHIVRLIMEAQKPVLYVGGGSLNSSAELRRFVELTGIPVASTLMGLGTFPIGDEYSLQMLGMHGTVYANYAVDNSDLLLAFGVRFDDRVTGKLEAFASRAKIVHIDIDSAEIGKNKQAHVSVCADLKLALKGINMILEEKGVEGKFDLGGWREEINVQKHKFPLGYKTFQDAISPQHAIEVLDELTNGDAIVSTGVGQHQMWAAQFYKYKRPRQWLTSGGLGAMGFGLPAAIGAAVANPGAVVVDIDGDGSFIMNVQELATIRVENLPVKILLLNNQHLGMVVQWEDRFYKSNRAHTYLGDPSSESEIFPNMLKFADACGIPAARVTKKEELRAAIQRMLDTPGPYLLDVIVPHQEHVLPMIPSNGSFKDVITEGDGRTRY
modifications: ALS1 variant P178S
Which results are given for B4?
Km (G. max ALS1 protein [1]): 1.6 mM; kcat (G. max ALS1 protein [1]): 1.15 s⁻¹; Substrate specificity ratio (Rf) (G. max ALS1 protein [2]): 104.0

B5: GM-ALS_A103T_P178S_D357E: Glycine Max ALS1 with A→T at 103, P→S at 178 and D→E at 357 (protein)
chain: MAATASRTTRFSSSSSHPTFPKRITRSTLPLSHQTLTKPNHALKIKCSISKPPTAAPFTKEAPTTEPFVSRFASGEPRKGADILVEALERQGVTTVFAYPGGTSMEIHQALTRSAAIRNVLPRHEQGGVFAAEGYARSSGLPGVCIATSGPGATNLVSGLADALMDSVPVVAITGQVSRRMIGTDAFQETPIVEVSRSITKHNYLILDVDDIPRVVAEAFFVATSGRPGPVLIDIPKDVQQQLAVPNWDEPVNLPGYLARLPRPPAEAQLEHIVRLIMEAQKPVLYVGGGSLNSSAELRRFVELTGIPVASTLMGLGTFPIGDEYSLQMLGMHGTVYANYAVDNSDLLLAFGVRFDERVTGKLEAFASRAKIVHIDIDSAEIGKNKQAHVSVCADLKLALKGINMILEEKGVEGKFDLGGWREEINVQKHKFPLGYKTFQDAISPQHAIEVLDELTNGDAIVSTGVGQHQMWAAQFYKYKRPRQWLTSGGLGAMGFGLPAAIGAAVANPGAVVVDIDGDGSFIMNVQELATIRVENLPVKILLLNNQHLGMVVQWEDRFYKSNRAHTYLGDPSSESEIFPNMLKFADACGIPAARVTKKEELRAAIQRMLDTPGPYLLDVIVPHQEHVLPMIPSNGSFKDVITEGDGRTRY
modifications: ALS1 variant A103T P178S D357E
What does the source list for B5?
Km (G. max ALS1 protein [1]): 21 mM; kcat (G. max ALS1 protein [1]): 1.05 s⁻¹; Substrate specificity ratio (Rf) (G. max ALS1 protein [2]): 114.0
